Source: patent US20140087995A1 (published 2014)
One block for each binder: values may come before it. Numbered stars: 1 amine (or outer) side, 2 acyl side, 3 side chain; on linkers, the order of the positions; unused ones are H or OH. Bridge positions count the residues as written; N and C are the ends. Side chains are listed from the residue outwards. Ends that are not written are not given here. * marks the point of attachment. C20 diacid = O=C(O)CCCCCCCCCCCCCCCCCCC(=O)*; γGlu = O=C(O)[C@H](CCC(=O)[*:2])N[*:1]

Assays:
[1] = biological target: T1, human calcitonin receptor (human, UniProt P30988 25-474); experiment: cell-based or functional assay
T1 sequence (looked up): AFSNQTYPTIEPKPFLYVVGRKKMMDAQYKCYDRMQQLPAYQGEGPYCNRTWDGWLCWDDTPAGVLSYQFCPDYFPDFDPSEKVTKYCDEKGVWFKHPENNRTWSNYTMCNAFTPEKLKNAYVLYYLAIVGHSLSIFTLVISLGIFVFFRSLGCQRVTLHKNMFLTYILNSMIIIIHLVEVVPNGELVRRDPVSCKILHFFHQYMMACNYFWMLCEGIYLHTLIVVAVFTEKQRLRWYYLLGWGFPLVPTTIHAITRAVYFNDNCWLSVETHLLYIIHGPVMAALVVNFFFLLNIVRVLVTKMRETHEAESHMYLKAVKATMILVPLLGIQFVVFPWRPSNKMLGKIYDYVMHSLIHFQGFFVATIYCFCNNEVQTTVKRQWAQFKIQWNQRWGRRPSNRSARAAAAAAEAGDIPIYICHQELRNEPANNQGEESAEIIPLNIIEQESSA

[2] = biological target: T2, human amylin receptor (amylin 3(a) receptor: human calcitonin receptor coexpressed with RAMP-3) (human, UniProt P30988 25-474; O60896 24-148); experiment: cell-based or functional assay
T2 sequence (looked up) 1: T1 sequence (looked up)
T2 sequence (looked up) 2: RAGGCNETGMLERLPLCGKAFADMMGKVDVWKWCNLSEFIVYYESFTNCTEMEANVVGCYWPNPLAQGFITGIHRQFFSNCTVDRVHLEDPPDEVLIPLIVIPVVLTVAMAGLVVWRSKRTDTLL

Ratio hCT/hAmylin funct. [1]: 44.9
hCTR funct. EC50 (pM) [1]: 7280 pM
hAmylin-R funct. EC50 (pM) [2]: 162 pM
B1: N^ε1-[(4S)-4-carboxy-4-[[(4S)-4-carboxy-4-(19-carboxynonadecanoylamino)butanoyl]amino]butanoyl]-[Asp14,Arg17,Pro21,Pro27,Pro34,Arg35]-h-amylin (peptide)
peptide: K([γGlu-γGlu-C20 diacid])CNTATCATQRLADFLRHSSPNFGAIPSSTNVGPRTY-NH2
modifications: disulfide 2-7; N-terminus assumed
SMILES: CC[C@H](C)[C@H](NC(=O)[C@H](C)NC(=O)CNC(=O)[C@H](Cc1ccccc1)NC(=O)[C@H](CC(N)=O)NC(=O)[C@@H]1CCCN1C(=O)[C@H](CO)NC(=O)[C@H](CO)NC(=O)[C@H](Cc1c[nH]cn1)NC(=O)[C@H](CCCNC(=N)N)NC(=O)[C@H](CC(C)C)NC(=O)[C@H](Cc1ccccc1)NC(=O)[C@H](CC(=O)O)NC(=O)[C@H](C)NC(=O)[C@H](CC(C)C)NC(=O)[C@H](CCCNC(=N)N)NC(=O)[C@H](CCC(N)=O)NC(=O)[C@@H](NC(=O)[C@H](C)NC(=O)[C@@H]1CSSC[C@H](NC(=O)[C@@H](N)CCCCNC(=O)CC[C@H](NC(=O)CC[C@H](NC(=O)CCCCCCCCCCCCCCCCCCC(=O)O)C(=O)O)C(=O)O)C(=O)N[C@@H](CC(N)=O)C(=O)N[C@@H]([C@@H](C)O)C(=O)N[C@@H](C)C(=O)N[C@@H]([C@@H](C)O)C(=O)N1)[C@@H](C)O)C(=O)N1CCC[C@H]1C(=O)N[C@@H](CO)C(=O)N[C@@H](CO)C(=O)N[C@H](C(=O)N[C@@H](CC(N)=O)C(=O)N[C@H](C(=O)NCC(=O)N1CCC[C@H]1C(=O)N[C@@H](CCCNC(=N)N)C(=O)N[C@H](C(=O)N[C@@H](Cc1ccc(O)cc1)C(N)=O)[C@@H](C)O)C(C)C)[C@@H](C)O
notes: also called compound 130

Ratio hCT/hAmylin funct. [1]: 29.3
hCTR funct. EC50 (pM) [1]: 8160 pM
hAmylin-R funct. EC50 (pM) [2]: 278 pM
B2: N^ε1-[(4S)-4-carboxy-4-[[(4S)-4-carboxy-4-(19-carboxynonadecanoylamino)butanoyl]amino]butanoyl]-[Glu14,Arg17,Pro21,Pro27,Pro34,Arg35]-h-amylin (peptide)
peptide: K([γGlu-γGlu-C20 diacid])CNTATCATQRLAEFLRHSSPNFGAIPSSTNVGPRTY-NH2
modifications: disulfide 2-7; N-terminus assumed
SMILES: CC[C@H](C)[C@H](NC(=O)[C@H](C)NC(=O)CNC(=O)[C@H](Cc1ccccc1)NC(=O)[C@H](CC(N)=O)NC(=O)[C@@H]1CCCN1C(=O)[C@H](CO)NC(=O)[C@H](CO)NC(=O)[C@H](Cc1c[nH]cn1)NC(=O)[C@H](CCCNC(=N)N)NC(=O)[C@H](CC(C)C)NC(=O)[C@H](Cc1ccccc1)NC(=O)[C@H](CCC(=O)O)NC(=O)[C@H](C)NC(=O)[C@H](CC(C)C)NC(=O)[C@H](CCCNC(=N)N)NC(=O)[C@H](CCC(N)=O)NC(=O)[C@@H](NC(=O)[C@H](C)NC(=O)[C@@H]1CSSC[C@H](NC(=O)[C@@H](N)CCCCNC(=O)CC[C@H](NC(=O)CC[C@H](NC(=O)CCCCCCCCCCCCCCCCCCC(=O)O)C(=O)O)C(=O)O)C(=O)N[C@@H](CC(N)=O)C(=O)N[C@@H]([C@@H](C)O)C(=O)N[C@@H](C)C(=O)N[C@@H]([C@@H](C)O)C(=O)N1)[C@@H](C)O)C(=O)N1CCC[C@H]1C(=O)N[C@@H](CO)C(=O)N[C@@H](CO)C(=O)N[C@H](C(=O)N[C@@H](CC(N)=O)C(=O)N[C@H](C(=O)NCC(=O)N1CCC[C@H]1C(=O)N[C@@H](CCCNC(=N)N)C(=O)N[C@H](C(=O)N[C@@H](Cc1ccc(O)cc1)C(N)=O)[C@@H](C)O)C(C)C)[C@@H](C)O
notes: also called compound 110

Ratio hCT/hAmylin funct. [1]: 28
hCTR funct. EC50 (pM) [1]: 2380 pM
hAmylin-R funct. EC50 (pM) [2]: 85 pM
B3: N^ε1-[(4S)-4-carboxy-4-[[(4S)-4-carboxy-4-(19-carboxynonadecanoylamino)butanoyl]amino]butanoyl]-[His14,Arg17,Pro21,Pro27]-h-amylin (peptide)
peptide: K([γGlu-γGlu-C20 diacid])CNTATCATQRLAHFLRHSSPNFGAIPSSTNVGSNTY-NH2
modifications: disulfide 2-7; N-terminus assumed
SMILES: CC[C@H](C)[C@H](NC(=O)[C@H](C)NC(=O)CNC(=O)[C@H](Cc1ccccc1)NC(=O)[C@H](CC(N)=O)NC(=O)[C@@H]1CCCN1C(=O)[C@H](CO)NC(=O)[C@H](CO)NC(=O)[C@H](Cc1c[nH]cn1)NC(=O)[C@H](CCCNC(=N)N)NC(=O)[C@H](CC(C)C)NC(=O)[C@H](Cc1ccccc1)NC(=O)[C@H](Cc1c[nH]cn1)NC(=O)[C@H](C)NC(=O)[C@H](CC(C)C)NC(=O)[C@H](CCCNC(=N)N)NC(=O)[C@H](CCC(N)=O)NC(=O)[C@@H](NC(=O)[C@H](C)NC(=O)[C@@H]1CSSC[C@H](NC(=O)[C@@H](N)CCCCNC(=O)CC[C@H](NC(=O)CC[C@H](NC(=O)CCCCCCCCCCCCCCCCCCC(=O)O)C(=O)O)C(=O)O)C(=O)N[C@@H](CC(N)=O)C(=O)N[C@@H]([C@@H](C)O)C(=O)N[C@@H](C)C(=O)N[C@@H]([C@@H](C)O)C(=O)N1)[C@@H](C)O)C(=O)N1CCC[C@H]1C(=O)N[C@@H](CO)C(=O)N[C@@H](CO)C(=O)N[C@H](C(=O)N[C@@H](CC(N)=O)C(=O)N[C@H](C(=O)NCC(=O)N[C@@H](CO)C(=O)N[C@@H](CC(N)=O)C(=O)N[C@H](C(=O)N[C@@H](Cc1ccc(O)cc1)C(N)=O)[C@@H](C)O)C(C)C)[C@@H](C)O
notes: also called compound 92
